Article PMC6937246

Tests used:
[1] = target: purified tubulin dimer; test: SPR
[2] = target: purified tubulin dimer; test: SPR; VASH1 K168E/C169S; conditions: complex
[3] = target: purified tubulin dimer; test: SPR; VASH1 R222A/C169S; conditions: complex

Sequence of VASH1-SVBP complex, VASH1 mutated at R222 (Q7L8A9 44-315, change not shown): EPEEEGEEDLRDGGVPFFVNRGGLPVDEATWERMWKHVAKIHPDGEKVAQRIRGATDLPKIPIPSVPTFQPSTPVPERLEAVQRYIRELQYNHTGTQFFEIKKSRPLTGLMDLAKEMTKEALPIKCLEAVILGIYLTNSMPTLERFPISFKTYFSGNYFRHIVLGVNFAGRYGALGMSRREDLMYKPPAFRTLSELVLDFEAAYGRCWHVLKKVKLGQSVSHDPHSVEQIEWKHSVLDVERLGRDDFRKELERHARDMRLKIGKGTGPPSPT
Sequence of VASH1-SVBP complex, VASH1 mutated at R222 (Q8N300 whole entry, change not shown): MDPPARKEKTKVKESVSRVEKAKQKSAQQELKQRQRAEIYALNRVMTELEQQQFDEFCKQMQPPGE
Sequence of VASH1-SVBP complex, VASH1 mutated at K168 (Q7L8A9 44-315, change not shown): as the sequence (Q7L8A9 44-315, change not shown) above
Sequence of VASH1-SVBP complex, VASH1 mutated at K168 (Q8N300 whole entry, change not shown): as the sequence (Q8N300 whole entry, change not shown) above

Substance	Kd [1]	other results
VASH1 S221A/C169S-SVBP	0.57 µM	–
VASH1-SVBP complex, VASH1 mutated at K168 (from UniProt Q7L8A9 44-315; Q8N300 1-66)	–	Kd [2]: 1.14 µM
VASH1 C169A-SVBP	0.99 µM	–
VASH1-SVBP complex, VASH1 mutated at R222 (from UniProt Q7L8A9 44-315; Q8N300 1-66)	–	Kd [3]: 1.4 µM

Further lines, with some results ahead:

Kd [1]	Substance	other results
0.75 µM	VASH1 H204A/C169S-SVBP	–
1.31 µM	VASH1 R222E/R223E/C169S-SVBP	–
0.47 µM	VASH1 C169S-SVBP	–
